The text below walks through data of patent publication US20190367572A1.

The assay deals with sonic hedgehog protein (SHH), endogenous in rat MPG/CN organ culture (rat) (UniProt Q63673). The assay is described as follows: cell-based or functional assay.
Chain of sonic hedgehog protein (SHH), endogenous in rat MPG/CN organ culture (rat) (Q63673 25-198 limits assumed): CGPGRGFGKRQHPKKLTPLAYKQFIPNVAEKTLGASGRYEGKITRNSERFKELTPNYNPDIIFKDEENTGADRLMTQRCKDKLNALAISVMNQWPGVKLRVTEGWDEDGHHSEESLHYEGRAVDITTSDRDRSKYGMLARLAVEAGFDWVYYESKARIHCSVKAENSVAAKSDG

5E1 SHH inhibitor (antibody): the neurite formation (growth cones per mm) in uninjured MPG/CN organ culture, three days was found to be 86 % reduction and the neurite formation (growth cones per mm) in uninjured MPG/CN organ culture, three days (fold reduction) stood at 7.3.
